Experimental findings from patent publication US20240189354A1 are described below.

The target of this test is RQR8. Description: cell-based or functional assay.
Sequence of RQR8 (chain, as listed by the source limits assumed): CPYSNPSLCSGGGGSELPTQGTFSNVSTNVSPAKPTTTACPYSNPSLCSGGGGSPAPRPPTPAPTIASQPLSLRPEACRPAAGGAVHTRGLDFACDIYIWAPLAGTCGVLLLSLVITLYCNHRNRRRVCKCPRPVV

rituximab (antibody) came in with a complement-dependent cytotoxicity (CDC): CAR+ cells eliminated, RTX 100 µg/ml with baby rabbit complement, 2 hours of 85%.
